Measurements reported in paper PMC3000357 (PLoS Genetics, 2010).

Assays:
RecS, purified = target: T1, RecS, purified (Bacillus subtilis, UniProt P50729 1-496); assay: SEC; purified RecS (4 µM) or YpbB/RecS (4 µM) mixed on ice with SSB (16 µM or 40 µM, as monomers) and loaded onto a gel-filtration column; fractions on SDS-PAGE, Coomassie; details: both partners purified
T1 construct: RecS (also annotated YpbC), RecQ paralogue of Bacillus subtilis; theoretical mass 57 kDa; also called YpbC; source: E. coli, purified (procedure in Text S1)
T1 sequence (looked up): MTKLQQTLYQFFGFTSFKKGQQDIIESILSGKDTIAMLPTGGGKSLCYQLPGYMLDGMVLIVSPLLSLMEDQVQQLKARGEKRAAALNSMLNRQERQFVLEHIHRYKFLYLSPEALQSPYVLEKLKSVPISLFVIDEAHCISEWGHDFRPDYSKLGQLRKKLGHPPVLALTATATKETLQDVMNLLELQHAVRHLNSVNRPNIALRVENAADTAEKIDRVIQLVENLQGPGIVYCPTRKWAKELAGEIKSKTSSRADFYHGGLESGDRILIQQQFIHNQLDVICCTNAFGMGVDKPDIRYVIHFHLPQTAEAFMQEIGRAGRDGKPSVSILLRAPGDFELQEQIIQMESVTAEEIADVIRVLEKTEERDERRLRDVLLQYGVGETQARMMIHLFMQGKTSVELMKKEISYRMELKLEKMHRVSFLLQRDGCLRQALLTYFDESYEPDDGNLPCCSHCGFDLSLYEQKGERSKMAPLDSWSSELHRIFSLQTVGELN

PriA, purified = target: T2, PriA, purified (Bacillus subtilis, UniProt P94461 1-805); assay: pull-down; streptavidin magnetic beads with a biotinylated 65-mer ssDNA coated by purified SSB or SSBΔ6 (80 pmol of tetramer; SSBΔ35: 100 pmol of tetramer, 60 pmol of tested protein); purified protein added in 20 mM Tris-HCl pH 7.5, 200 mM NaCl, 30 min, 20°C; SDS-PAGE, Coomassie; details: both partners purified
T2 construct: PriA, primary replication restart protein (DNA helicase) of Bacillus subtilis; source: E. coli, purified (procedure in Text S1)
T2 sequence (looked up): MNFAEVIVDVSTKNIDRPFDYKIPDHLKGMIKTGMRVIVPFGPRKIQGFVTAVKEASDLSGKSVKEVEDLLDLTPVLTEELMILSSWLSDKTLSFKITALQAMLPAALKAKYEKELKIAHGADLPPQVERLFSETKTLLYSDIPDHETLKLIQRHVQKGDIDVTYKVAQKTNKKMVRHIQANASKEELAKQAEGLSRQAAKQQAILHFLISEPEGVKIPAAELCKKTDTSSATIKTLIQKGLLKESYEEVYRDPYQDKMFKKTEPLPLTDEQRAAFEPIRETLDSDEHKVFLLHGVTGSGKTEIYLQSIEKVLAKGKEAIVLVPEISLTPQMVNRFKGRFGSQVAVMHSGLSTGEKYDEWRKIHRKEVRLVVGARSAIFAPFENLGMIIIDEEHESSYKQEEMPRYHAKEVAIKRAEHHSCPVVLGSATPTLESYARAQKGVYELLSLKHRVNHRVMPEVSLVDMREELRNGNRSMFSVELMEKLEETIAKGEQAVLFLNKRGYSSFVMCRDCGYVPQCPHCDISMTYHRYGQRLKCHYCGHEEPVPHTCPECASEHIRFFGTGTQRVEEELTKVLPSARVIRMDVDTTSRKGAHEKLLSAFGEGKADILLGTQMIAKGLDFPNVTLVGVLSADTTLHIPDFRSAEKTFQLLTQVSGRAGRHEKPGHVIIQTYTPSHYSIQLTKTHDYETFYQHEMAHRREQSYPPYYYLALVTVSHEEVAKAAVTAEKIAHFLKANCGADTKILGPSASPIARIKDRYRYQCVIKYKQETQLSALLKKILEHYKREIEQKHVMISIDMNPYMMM

RecO, purified = target: T3, RecO, purified (Bacillus subtilis, UniProt P42095 1-255); assay: as above; details: both partners purified
T3 construct: RecO recombination mediator protein of Bacillus subtilis; source: E. coli, purified (procedure in Text S1)
T3 sequence (looked up): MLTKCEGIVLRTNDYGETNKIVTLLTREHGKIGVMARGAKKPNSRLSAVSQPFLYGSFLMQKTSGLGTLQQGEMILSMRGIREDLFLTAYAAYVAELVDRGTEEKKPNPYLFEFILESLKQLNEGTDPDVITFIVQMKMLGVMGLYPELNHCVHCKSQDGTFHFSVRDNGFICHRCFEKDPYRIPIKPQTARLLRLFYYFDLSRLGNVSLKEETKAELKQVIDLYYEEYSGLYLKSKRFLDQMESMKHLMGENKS

RecG, purified = target: T4, RecG, purified (Bacillus subtilis, UniProt O34942 1-682); assay: as above; details: both partners purified
T4 construct: RecG DNA helicase of Bacillus subtilis; source: E. coli, purified (procedure in Text S1)
T4 sequence (looked up): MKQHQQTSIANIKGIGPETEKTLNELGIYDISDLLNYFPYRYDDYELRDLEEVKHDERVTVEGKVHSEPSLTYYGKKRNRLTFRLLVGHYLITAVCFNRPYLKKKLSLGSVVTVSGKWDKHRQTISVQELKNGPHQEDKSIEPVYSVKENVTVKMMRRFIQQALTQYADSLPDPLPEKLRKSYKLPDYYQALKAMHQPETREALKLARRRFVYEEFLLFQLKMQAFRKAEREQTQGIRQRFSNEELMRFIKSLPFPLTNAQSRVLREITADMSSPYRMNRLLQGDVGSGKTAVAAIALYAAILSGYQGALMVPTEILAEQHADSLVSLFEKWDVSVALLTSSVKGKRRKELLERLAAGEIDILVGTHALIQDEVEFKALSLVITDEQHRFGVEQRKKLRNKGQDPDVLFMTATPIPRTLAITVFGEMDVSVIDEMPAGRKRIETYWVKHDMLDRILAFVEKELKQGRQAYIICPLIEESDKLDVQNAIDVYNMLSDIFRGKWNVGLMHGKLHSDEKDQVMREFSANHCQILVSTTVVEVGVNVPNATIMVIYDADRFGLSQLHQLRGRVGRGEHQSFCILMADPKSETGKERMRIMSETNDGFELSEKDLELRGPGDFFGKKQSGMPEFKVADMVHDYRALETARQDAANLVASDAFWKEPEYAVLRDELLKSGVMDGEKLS

RecQ, purified = target: T5, RecQ, purified (Bacillus subtilis, UniProt O34748 1-591); assay: as above; details: both partners purified
T5 construct: RecQ DNA helicase (initially annotated YocI) of Bacillus subtilis; also called YocI; source: E. coli, purified (procedure in Text S1)
T5 sequence (looked up): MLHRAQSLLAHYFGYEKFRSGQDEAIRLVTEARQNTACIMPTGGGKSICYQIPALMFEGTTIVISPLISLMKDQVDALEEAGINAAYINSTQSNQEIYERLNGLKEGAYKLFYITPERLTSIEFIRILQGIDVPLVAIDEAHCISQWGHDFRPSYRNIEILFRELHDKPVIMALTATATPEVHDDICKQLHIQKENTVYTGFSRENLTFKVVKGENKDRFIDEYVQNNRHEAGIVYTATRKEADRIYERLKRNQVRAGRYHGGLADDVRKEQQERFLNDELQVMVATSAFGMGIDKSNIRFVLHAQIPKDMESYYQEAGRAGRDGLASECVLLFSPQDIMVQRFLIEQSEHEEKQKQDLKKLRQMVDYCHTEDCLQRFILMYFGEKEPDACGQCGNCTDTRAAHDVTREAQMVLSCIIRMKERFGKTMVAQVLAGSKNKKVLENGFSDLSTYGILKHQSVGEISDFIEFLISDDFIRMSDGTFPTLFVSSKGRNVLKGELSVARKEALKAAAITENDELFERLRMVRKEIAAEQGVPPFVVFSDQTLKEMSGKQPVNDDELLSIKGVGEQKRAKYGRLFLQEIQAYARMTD

[1] = target: T6, YpbB/RecS complex, purified (Bacillus subtilis, UniProt P50728 1-352; P50729 1-496); assay: SEC; purified RecS (4 µM) or YpbB/RecS (4 µM) mixed on ice with SSB (16 µM or 40 µM, as monomers) and loaded onto a gel-filtration column; fractions on SDS-PAGE, Coomassie; details: both partners purified
T6 construct: YpbB of Bacillus subtilis; RecS (YpbC) of Bacillus subtilis; Equivalent amounts of YpbB and RecS appear to be present in the complex
T6 sequence (looked up) 1: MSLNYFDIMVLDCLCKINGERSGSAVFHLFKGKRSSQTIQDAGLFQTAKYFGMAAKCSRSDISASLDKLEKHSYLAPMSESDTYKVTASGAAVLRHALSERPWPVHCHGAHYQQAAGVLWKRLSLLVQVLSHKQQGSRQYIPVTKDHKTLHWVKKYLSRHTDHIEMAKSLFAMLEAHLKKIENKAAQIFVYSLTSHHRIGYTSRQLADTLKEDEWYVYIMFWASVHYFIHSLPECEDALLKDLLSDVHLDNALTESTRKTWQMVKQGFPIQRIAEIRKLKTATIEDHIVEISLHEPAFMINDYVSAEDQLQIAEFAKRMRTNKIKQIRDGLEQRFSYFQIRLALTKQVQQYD
T6 sequence (looked up) 2: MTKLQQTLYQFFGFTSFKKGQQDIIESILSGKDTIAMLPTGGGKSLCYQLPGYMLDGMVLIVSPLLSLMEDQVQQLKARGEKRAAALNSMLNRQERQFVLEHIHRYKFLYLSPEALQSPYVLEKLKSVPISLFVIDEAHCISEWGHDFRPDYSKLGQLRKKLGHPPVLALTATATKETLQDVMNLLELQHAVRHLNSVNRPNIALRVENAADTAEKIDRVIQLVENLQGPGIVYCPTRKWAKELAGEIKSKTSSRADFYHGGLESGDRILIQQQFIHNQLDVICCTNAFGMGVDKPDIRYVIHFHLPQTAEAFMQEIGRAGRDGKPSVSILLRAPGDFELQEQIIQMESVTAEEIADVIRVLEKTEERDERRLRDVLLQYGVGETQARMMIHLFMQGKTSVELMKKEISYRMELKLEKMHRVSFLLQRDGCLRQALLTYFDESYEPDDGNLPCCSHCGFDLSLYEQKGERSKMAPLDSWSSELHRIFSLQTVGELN

SSB = target: T7, SSB (Bacillus subtilis, UniProt P37455 1-172); assay: pull-down on ssDNA magnetic beads; 50 pmol oligo, 80 pmol SSB; 20 mM Tris-HCl pH 7.5, 200 mM NaCl, 20 °C, 800 rpm; beads washed in same buffer; details: protein: recombinant; chain copies: 4; label: 5' biotin, on streptavidin magnetic beads; single strand
T7 sequence: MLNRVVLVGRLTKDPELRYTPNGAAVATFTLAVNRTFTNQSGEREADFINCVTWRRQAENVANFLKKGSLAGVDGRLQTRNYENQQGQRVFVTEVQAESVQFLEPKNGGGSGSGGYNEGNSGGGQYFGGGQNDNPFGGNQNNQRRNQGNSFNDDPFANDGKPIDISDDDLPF

SSBΔ35 = target: T8, SSBΔ35 (Bacillus subtilis, UniProt P37455 1-137); assay: pull-down on ssDNA magnetic beads; 20 mM Tris-HCl pH 7.5, 200 mM NaCl, 20 °C, 800 rpm; beads washed in same buffer; details: protein: recombinant; chain copies: 4; label: 5' biotin, on streptavidin magnetic beads; single strand
T8 sequence: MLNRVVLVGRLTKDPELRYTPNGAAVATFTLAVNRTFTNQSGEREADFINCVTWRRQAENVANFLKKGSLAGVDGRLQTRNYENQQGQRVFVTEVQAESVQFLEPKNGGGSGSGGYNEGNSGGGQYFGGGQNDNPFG

SSBΔ6 = target: T9, SSBΔ6 (Bacillus subtilis, UniProt P37455 1-166); assay: pull-down on ssDNA magnetic beads; 50 pmol oligo, 80 pmol SSBΔ6; 20 mM Tris-HCl pH 7.5, 200 mM NaCl, 20 °C, 800 rpm; beads washed in same buffer; details: protein: recombinant; chain copies: 4; label: 5' biotin, on streptavidin magnetic beads; single strand
T9 sequence: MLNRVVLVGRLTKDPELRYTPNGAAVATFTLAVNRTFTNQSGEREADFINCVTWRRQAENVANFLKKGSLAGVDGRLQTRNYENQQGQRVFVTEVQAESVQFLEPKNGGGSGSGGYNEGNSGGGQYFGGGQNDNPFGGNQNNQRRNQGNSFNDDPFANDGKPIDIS

Measured: binding result

B1: YpbB, produced in E. coli with RecS (natural protein, Bacillus subtilis, UniProt P50728 1-352, looked up)
chain: MSLNYFDIMVLDCLCKINGERSGSAVFHLFKGKRSSQTIQDAGLFQTAKYFGMAAKCSRSDISASLDKLEKHSYLAPMSESDTYKVTASGAAVLRHALSERPWPVHCHGAHYQQAAGVLWKRLSLLVQVLSHKQQGSRQYIPVTKDHKTLHWVKKYLSRHTDHIEMAKSLFAMLEAHLKKIENKAAQIFVYSLTSHHRIGYTSRQLADTLKEDEWYVYIMFWASVHYFIHSLPECEDALLKDLLSDVHLDNALTESTRKTWQMVKQGFPIQRIAEIRKLKTATIEDHIVEISLHEPAFMINDYVSAEDQLQIAEFAKRMRTNKIKQIRDGLEQRFSYFQIRLALTKQVQQYD
notes: YpbB, protein of unknown function of Bacillus subtilis, encoded immediately upstream of recS; Could not be prepared as a soluble protein alone; source: E. coli, purified only as a complex with RecS (procedure in Text S1)
binds: RecS, purified

B2: Bacillus subtilis Single-Stranded DNA Binding protein (SSB), purified (natural protein, UniProt P37455 1-172, looked up)
chain: MLNRVVLVGRLTKDPELRYTPNGAAVATFTLAVNRTFTNQSGEREADFINCVTWRRQAENVANFLKKGSLAGVDGRLQTRNYENQQGQRVFVTEVQAESVQFLEPKNGGGSGSGGYNEGNSGGGQYFGGGQNDNPFGGNQNNQRRNQGNSFNDDPFANDGKPIDISDDDLPF
notes: Used as a tetramer; source: E. coli, purified (procedure in Text S1)
binds: PriA, purified | RecO, purified | RecG, purified | RecQ, purified | [1]

B3: 65-mer biotinylated ssDNA oligonucleotide (ssDNA)
DNA: CGTCGTTTTACAACGTCGTGACTGGGAAAACCCTGGCGTTACCCAACTTAATCGCCTTGCAGCA
modifications: biotin-TEG
binds: SSB | SSBΔ35 | SSBΔ6
